This passage reports koff, kon and Kd results from patent US20250340623A1 (AC IMMUNE, published 2025).

Positions count from the first letter of the chain named.

B1: ACI-27D8_4301D5 (bispecific antibody, V domains shown)
VH 1: EVQLVESGGGLVQPKGSLKLSCAASGFTFNTYAMNWVRQAPGKGLEWVARIRSKSNNFATYYADSVKDRFTISRDESESMLYLQMNNLKAEDTAMYYCVRSFDYWGQGTTLTVSS
VL 1: DIKMTQSPSSMYASLGERVTITCKASQDINSYLSWFQQKPGKSPKTLIYRAKRLVDGVPSRFSGSGSGQDYSLTISSLEYEDMGIYYCLQYDEFPFTFGSGTKLEIK
VH 2: QVQLQQSGPELVRPGASVKISCKASGYRFTSYYIHWVKQRPGQGLEWIGWIYPGSDNTKHNDKFKGKATLTADTSSSTAYMQLSSLTSEDSAVYFCARDYDVGFGYWGQGTLVTVSS
VL 2: not shown
notes: biparatopic; Arm A ACI-8033-27D8-Ab1, Arm B ACI-7088-4301D5-Ab2; engineered constant domains not specified
B2: ACI-3108C10_3112H1 (bispecific antibody, V domains shown)
VH 1: ELQLVESGGGLVRPGGSLKLSCATSGFTFRNYAMSWVRQTPAKRLEWVATISDGGTYTFYSDNVKGRFTISRDNVKNTLYLQMSHLKSEDTAMYYCSRAGSGHWGQGTTLTVSS
VL 1: not shown
VH 2: EVQLQQSGPELVKPGASVKISCKASGYTFSDYFMNWVKQSHGKSLEWIGDINPNNGGSSYIQKFKGKATLTVDKSSTTAYMELRSLTSEDSAVYYCARGSNYAMDSWGQGTSVTVSS
VL 2: DIVMSQSPSSLAVSAGEKVTMSCKSSQSLLNSRTRKNYLAWYQQKPGQSPKLLIYWASTRESGVPDRFTGSGSGTDFTLTISSVQAEDLAVYYCKQSYDLWTFGGGTKLEIK
notes: biparatopic; Arm A ACI-7079-3108C10-Ab2, Arm B ACI-7079-3112H1-Ab1; engineered constant domains not specified
B3: ACI-3112H1_3108C10 (bispecific antibody, V domains shown)
VH 1: B2 VH 2
VL 1: B2 VL 2
VH 2: B2 VH 1
VL 2: not shown
notes: biparatopic; Arm A ACI-7079-3112H1-Ab1, Arm B ACI-7079-3108C10-Ab2; engineered constant domains not specified
B4: ACI-3108C10_5A12 (bispecific antibody, V domains shown)
VH 1: B2 VH 1
VL 1: not shown
VH 2: QVHLKQSGADLVRPGASVKLSCKASGYTFTDYYINWVKQRPGQGLEWIARIYPGSGNTYYNEKFKGRATLSAEKSSTTAYMQLSSLTSEDSAVYFCVVGYYGAWGQGTTLTVSS
VL 2: DVVMTQTPLSLPVSLGDQASISCRSSQSLVHSNGKTHLHWYLQKPGQSPKLLIYKVSNRFSGVPDRFSGSGSGTDFTLKISRVEAEDLGVYFCSQSTHVPWTFGGGTKLEIK
notes: biparatopic; Arm A ACI-7079-3108C10-Ab2, Arm B ACI-8033-5A12-Ab1; engineered constant domains not specified
B5: ACI-4301H3_3108C10 (bispecific antibody, V domains shown)
VH 1: B2 VH 2 with S30A, S58T, S59T, I61N, T77N, S100R, S106Y
VL 1: B2 VL 2 with W56S, S73F
VH 2: B2 VH 1
VL 2: not shown
notes: biparatopic; Arm A ACI-7088-4301H3-Ab2, Arm B ACI-7079-3108C10-Ab2; engineered constant domains not specified
B6: ACI-4317A4_1113D10 (bispecific antibody, V domains shown)
VH 1: EVQLQQSGAELVRPGASVKLSCTASGFNIKDDYMHWVKQRPEQGLEWIGWIDPENGDTEYASKFQGKATMTADTSSNTAYLQLSSLTSEDTAVYYCKTWGTTQALFPYWGQGTLVTVSA
VL 1: DIVMTQSQKFMYTSVGDRVSITCKASQNVGNAVGWYQQKAGQSPKLLIHSASNRYTGVPDRFTGTGSGTDFTLTINNMQSEDLADYFCQQYRSYPLTFGAGTKLELK
VH 2: EVQLVESGGGLVQPKGSLKLSCAASGFTFNTYALHWVRQAPGKGLEWVARIRSKSSNYATYYADSVKDRFTISRDDSQSMLYLQMNNLKTEDTGMYYCVRGGVSPFDYWGQGTTLTVSS
VL 2: QIVLTQSPAIMSASPGEKVTMTCSASSSVSYMHWYQQKSGTSPKRWIYDTSKLASGVPARFSGSGSGTSYSLTISSMEAEDSATYYCQQWSNNPPTFGGGTKLEIK
notes: biparatopic; Arm A ACI-7088-4317A4-Ab1, Arm B ACI-7067-1113D10-Ab1; engineered constant domains not specified
B7: ACI-27D8_4317A4 (bispecific antibody, V domains shown)
VH 1: B1 VH 1
VL 1: B1 VL 1
VH 2: B6 VH 1
VL 2: B6 VL 1
notes: biparatopic; Arm A ACI-8033-27D8-Ab1, Arm B ACI-7088-4317A4-Ab1; engineered constant domains not specified
B8: ACI-1108H1_4303A3 (bispecific antibody, V domains shown)
VH 1: EVKLVESGGGLVQPGGSMKLSCTASGFTFSDAWMNWVRQSPEKGLEWVAEIRNKAHNHATNYAESVKGRFTISGDDSKSSVYLQMNNLRAEDTGIYYCTIYSFWGQGTLVTVSA
VL 1: SIVMTQTPKFLLVSAGDRVTITCKASQSVTNYVAWYHQKPGQSPKLLIYSASNRYSGVPDRFTGSGYGTDFTFTINTVQTEDLAVYFCQQDYRIPYTFGGGTKLEIK
VH 2: QVQLQQSGAELVRPGASVTLSCKASGYTFTDYEMHWVKQTPVHGLEWIGVIDPETGGAVQNQKFKGKAILTADNSSSTAYMDLRSLTSEDSAVYNCAMGAALRLAYWGQGTLVTVSS
VL 2: DVLMTQTPLSLPVSLGDQASISCRSSQSIVHSNGNSYLEWYLQKPGQSPKLLIYKVSNRFSGVPDRFSGSGSGTDFTLKINRVEAEDLGVYYCFQGSHVPFTFGSGTKLEIK
notes: biparatopic; Arm A ACI-7067-1108H1-Ab1, Arm B ACI-7088-4303A3-Ab1; engineered constant domains not specified
B9: ACI-1101C8_4317A4 (bispecific antibody, V domains shown)
VH 1: EVQLVESGGGLVQPKGSLKLSCAASGFSFNIYAMNWVRQAPGKGLEWVARIRSKSNNYATYYADSVKDRFTISRADSESMLYLQMNNLKTEDTAMYYCVRVGLRFYAMDYWGQGTSVTVSS
VL 1: B8 VL 2 with S36T, N81S, H98Q, V99G, F101L, S105A, I111L
VH 2: B6 VH 1
VL 2: B6 VL 1
notes: biparatopic; Arm A ACI-7067-1101C8-Ab2, Arm B ACI-7088-4317A4-Ab1; engineered constant domains not specified
B10: ACI-1101C8_5A12 (bispecific antibody, V domains shown)
VH 1: B9 VH 1
VL 1: B8 VL 2 with S36T, N81S, H98Q, V99G, F101L, S105A, I111L
VH 2: B4 VH 2
VL 2: B4 VL 2
notes: biparatopic; Arm A ACI-7067-1101C8-Ab2, Arm B ACI-8033-5A12-Ab1; engineered constant domains not specified
B11: ACI-1101C8_4301E12 (bispecific antibody, V domains shown)
VH 1: B9 VH 1
VL 1: B8 VL 2 with S36T, N81S, H98Q, V99G, F101L, S105A, I111L
VH 2: DVQLQESGPGLVKPSQSLSLTCSVTGYSITSGYYWNWIRQFPGNKLEWMGYISDDGSKNYNPSLKNRISITRDTSKNQLFMKLNSVTTEDTATYYCARGDSRLGQGTLVTVSA
VL 2: not shown
notes: biparatopic; Arm A ACI-7067-1101C8-Ab2, Arm B ACI-7088-4301E12-Ab2; engineered constant domains not specified

For one assay, the target named is T1, monomeric alpha-synuclein (UniProt P37840 1-140). Description: SPR, captured bAb. The protocol:
(§1) Any non-covalently bound antibodies were removed by three successive regenerations of 10 mM Glycine pH 1.7 (GE Healthcare, 28-9950-84). Immobilization levels were evaluated following ethanolamine capping (Bound) and finally following regeneration (Final). Non-covalent immobilization of alpha-synuclein biparatopic antibodies on flow cell 2 of channels 1-8 was performed at a final concentration of 5 μg/mL, diluted in 10 mM sodium acetate pH 5.5 (GE Healthcare, BR-1003-52). Non-covalent immobilization of an isotype control antibody on flow cell 1 of channels 1-8 was performed at a final concentration of 5 μg/mL, diluted in 10 mM sodium acetate pH 5.5 (GE Healthcare, BR-1003-52).
(§2) Binding affinity of alpha-synuclein biparatopic antibodies to monomeric or fibrillar alpha-synuclein species was performed using a single-cycle kinetics method. The instrument was primed with 1×HBS-P+ buffer (10× stock from GE Healthcare, BR-1003-52 diluted in Milli-Q water). Injections of monomeric alpha-synuclein (Boston Biochem, SP-485), increasing in concentration from 0.62-50 nM prepared from serial 2-fold dilutions, were performed with contact times of 300 sec/injection at a flow rate of 30 μL/min. A dissociation phase of 900 sec followed the final 50 nM injection. Regeneration of the sensor to the goat anti-human antibody layer was achieved using 3 regenerations of 10 mM Glycine pH 1.7. […] Regeneration of the sensor to the goat anti-mouse antibody layer was achieved using 3 regenerations of 10 mM Glycine pH 1.7. Results obtained from single-cycle kinetics were evaluated by Biacore 8K evaluation software with 1:1 binding homogenous Langmuir model with a preceeding buffer injection as a blank subtraction. The following kinetic parameters were obtained: on-rate (ka), off-rate (kd), affinity constant (KD, ratio of kd by ka), maximum response (Rmax), and goodness of fit (Chi2).
(§3) Kinetic constants were determined from 1:1 homogenous binding models for all cases.
What is called koff is the rate constant with which the complex falls apart. As a reminder, the kon is the second-order rate constant of association. Low readings indicate slower complex formation, high ones faster complex formation. In turn, B1 came in with a koff of 0.147 s⁻¹ and a kon of 1.37e+06 M⁻¹ s⁻¹.
On to B2, for which the koff was 0.023 s⁻¹ and the kon amounted to 2280 M⁻¹ s⁻¹.
Regarding B3, the koff is 0.0162 s⁻¹ and the kon was 5540 M⁻¹ s⁻¹.
As to B4, the koff stood at 8.05 s⁻¹ and the kon was found to be 9.13e+08 M⁻¹ s⁻¹.
In the case of B5, the koff was found to be 0.0361 s⁻¹ and the kon is 1.04e+06 M⁻¹ s⁻¹.
As to B6, the koff was determined as 0.000675 s⁻¹ and the kon turned out to be 1.39e+06 M⁻¹ s⁻¹.
B7 registered a koff of 0.0283 s⁻¹ and a kon of 7.94e+06 M⁻¹ s⁻¹.
For the molecule B8, the koff worked out at 0.00129 s⁻¹ and the kon came to 1.43e+06 M⁻¹ s⁻¹.
For B9 the same measures were 0.00158 s⁻¹ and 2.35e+06 M⁻¹ s⁻¹.
For B10 the same measures were 0.0042 s⁻¹ and 1.1e+06 M⁻¹ s⁻¹.
B11 came in with a koff of 0.000444 s⁻¹ and a kon of 224000 M⁻¹ s⁻¹.

In the next assay the target is T2, alpha-synuclein fibrils (UniProt P37840 1-140). Briefly: SPR, captured bAb. The protocol:
as §1, §2, §3
On the technique in general: Surface plasmon resonance follows binding to a sensor surface in real time, without labels.
Consider B1, for which the off-rate constant (koff) was found to be 0.000219 s⁻¹ and the kon amounted to 13100 M⁻¹ s⁻¹.
For B2 the same measures were 0.000315 s⁻¹ and 13500 M⁻¹ s⁻¹.
For B3, the koff was 0.000472 s⁻¹ and the kon was found to be 7650 M⁻¹ s⁻¹.
For B4 the same measures were 0.000113 s⁻¹ and 10500 M⁻¹ s⁻¹.
Molecule B5 returned a koff of 0.000418 s⁻¹ and a kon of 8220 M⁻¹ s⁻¹.
As to B6, the koff came out at 7.77e-06 s⁻¹ and the kon was found to be 49200 M⁻¹ s⁻¹.
B7 showed a koff of 5.8e-05 s⁻¹ and a kon of 65400 M⁻¹ s⁻¹.
For B8, in that order: 1.49e-05 s⁻¹ and 73600 M⁻¹ s⁻¹.
B9 had a dissociation rate constant (koff) of 3e-05 s⁻¹ and a kon of 69300 M⁻¹ s⁻¹.
The molecule B10 showed a koff of 6.13e-05 s⁻¹ and an on-rate constant (kon) of 46700 M⁻¹ s⁻¹.
Molecule B11 registered a koff of 9.65e-07 s⁻¹ and an association rate constant (kon) of 44900 M⁻¹ s⁻¹.

Another assay concerns the target T1, monomeric alpha-synuclein. Description: SPR, captured bAb; head says nM, kd/ka gives M. The protocol:
as §1, §2, §3
A word on the Kd: it is a measure of binding affinity in units of concentration. A low value points to higher affinity. Turning to B1, the Kd was 107 nM.
The same measure, in the same setting: the value for B2 was 10100 nM; that for B3 was 2920 nM; that for B4 was 8.82 nM.
The molecule B5 showed a Kd of 34.8 nM.
For B6, binding was characterised by a dissociation constant (Kd) of 0.486 nM.
The molecule B7 showed a Kd of 3.57 nM.
For the molecule B8, the dissociation constant (Kd) is 0.903 nM.
Molecule B9 had a Kd of 0.671 nM.
B10 gave a Kd of 3.82 nM.
Consider B11, for which binding was characterised by a dissociation constant (Kd) of 1.98 nM.

In the next assay the target is T2, alpha-synuclein fibrils. Description: SPR, captured bAb; head says nM, kd/ka gives M. As for the experimental part: as §1, §2, §3
For the molecule B1, the affinity, expressed as Kd, was 16.7 nM.
For the molecule B2, the Kd worked out at 23.4 nM.
Still for that read-out and setting: the value for B3 was 61.7 nM; that for B4 was 10.8 nM.
B5 returned a dissociation constant (Kd) of 50.8 nM.
Take B6: binding was put at a Kd of 0.158 nM.
Still for that read-out and setting: the figure for B7 is 0.887 nM; for B8 it is 0.203 nM.
As to B9, binding was characterised by a dissociation constant (Kd) of 0.433 nM.
B10 came in with a Kd of 1.31 nM.
For the molecule B11, the affinity, expressed as Kd, was 0.0215 nM.
